The target in the assay is human Nudt16 protein (human) (UniProt Q96DE0). Description: cross-linking.

Stoichiometry N data for one substance are collected here from publication PMC2566886.

human Nudt16 protein, sequence (Q96DE0 whole entry): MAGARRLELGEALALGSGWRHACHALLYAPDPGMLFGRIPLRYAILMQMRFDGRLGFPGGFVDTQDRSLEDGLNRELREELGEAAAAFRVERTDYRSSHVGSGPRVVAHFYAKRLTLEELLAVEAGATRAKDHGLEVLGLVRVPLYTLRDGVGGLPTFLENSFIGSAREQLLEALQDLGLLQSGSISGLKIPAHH

As to “human Nudt16 protein (from UniProt Q96DE0 1-195) (enzyme)”, the stoichiometry N came to 2.
